Test results published in patent US20230192845A1 (BLINK BIOMEDICAL, published 2023).
Positions count from the first letter of the chain named. In names and notes the source's numbering stands.

T1: mouse CD96 expressed on CHO cells (mouse, UniProt Q3U0X8 22-602)
T1 construct: whole, on cells; also called mCD96
T1 sequence (looked up): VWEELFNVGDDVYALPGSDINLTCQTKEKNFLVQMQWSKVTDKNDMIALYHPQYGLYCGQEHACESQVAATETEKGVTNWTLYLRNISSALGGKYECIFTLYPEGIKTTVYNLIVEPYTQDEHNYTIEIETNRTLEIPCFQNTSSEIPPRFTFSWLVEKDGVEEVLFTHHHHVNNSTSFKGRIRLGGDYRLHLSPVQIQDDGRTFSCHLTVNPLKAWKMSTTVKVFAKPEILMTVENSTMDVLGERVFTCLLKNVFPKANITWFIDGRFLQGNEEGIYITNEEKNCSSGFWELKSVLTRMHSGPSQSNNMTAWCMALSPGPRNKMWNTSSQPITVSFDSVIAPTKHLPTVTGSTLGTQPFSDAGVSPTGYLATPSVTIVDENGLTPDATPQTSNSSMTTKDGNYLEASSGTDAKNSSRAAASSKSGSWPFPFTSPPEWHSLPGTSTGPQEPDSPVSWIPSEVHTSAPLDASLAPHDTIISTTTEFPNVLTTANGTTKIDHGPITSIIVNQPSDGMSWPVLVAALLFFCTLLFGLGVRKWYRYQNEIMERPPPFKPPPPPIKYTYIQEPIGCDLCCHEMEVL

T2: rhesus CD96 transiently expressed on CHO cells (rhesus, UniProt P40200 22-585 (human entry))
T2 construct: also called rhesus CD96, short isoform
T2 chain: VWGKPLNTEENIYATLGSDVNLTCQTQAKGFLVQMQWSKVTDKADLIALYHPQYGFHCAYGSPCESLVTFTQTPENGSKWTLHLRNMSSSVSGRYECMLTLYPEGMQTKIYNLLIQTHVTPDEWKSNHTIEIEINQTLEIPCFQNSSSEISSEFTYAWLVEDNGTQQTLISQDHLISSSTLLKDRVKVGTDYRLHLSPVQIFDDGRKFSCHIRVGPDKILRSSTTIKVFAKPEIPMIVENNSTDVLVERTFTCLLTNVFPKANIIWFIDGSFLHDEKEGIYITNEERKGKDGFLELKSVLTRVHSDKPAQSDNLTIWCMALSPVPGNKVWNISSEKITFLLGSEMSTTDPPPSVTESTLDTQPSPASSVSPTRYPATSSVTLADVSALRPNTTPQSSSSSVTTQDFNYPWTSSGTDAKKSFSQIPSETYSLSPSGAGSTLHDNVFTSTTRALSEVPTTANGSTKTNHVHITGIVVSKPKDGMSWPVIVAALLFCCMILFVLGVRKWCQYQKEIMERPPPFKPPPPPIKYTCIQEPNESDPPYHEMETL

T3: human CD96 short isoform v2 expressed on CHO cells (human, UniProt P40200 22-585)
T3 construct: also called hCD96v2; CD96v2; not shown: C-terminal HA-tag
T3 sequence: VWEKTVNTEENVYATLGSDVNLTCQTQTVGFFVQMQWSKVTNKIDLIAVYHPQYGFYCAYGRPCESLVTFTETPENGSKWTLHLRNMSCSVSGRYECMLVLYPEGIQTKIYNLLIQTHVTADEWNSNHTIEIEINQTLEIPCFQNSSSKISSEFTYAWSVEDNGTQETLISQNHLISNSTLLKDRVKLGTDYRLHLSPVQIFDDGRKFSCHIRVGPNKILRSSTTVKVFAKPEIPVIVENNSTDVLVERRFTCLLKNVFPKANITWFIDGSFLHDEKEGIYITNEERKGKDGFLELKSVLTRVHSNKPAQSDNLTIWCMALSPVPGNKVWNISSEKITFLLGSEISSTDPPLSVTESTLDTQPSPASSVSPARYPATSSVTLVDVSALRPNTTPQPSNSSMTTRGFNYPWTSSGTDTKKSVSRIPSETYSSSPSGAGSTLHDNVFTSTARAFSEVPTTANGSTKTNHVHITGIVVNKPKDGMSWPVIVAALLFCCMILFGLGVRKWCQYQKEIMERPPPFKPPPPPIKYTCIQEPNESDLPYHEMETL

B1: BL006-4-31G1-31K3 (antibody, V domains shown)
VH: QVQLQQSGPELVKPGASVKISCKTSGFTFTDYYINWVKQRPGQGLEWIGWIFPGSGSSFYSEIFKGQATLTVDKSSSTAYMLLSSLTSEDSAVYFCARRNYYGYGAYAMDYWGQGTSVTVSS
VL: DIQMNQSPSSLSASLGDTITITCRASQSINFWLSWYQQKPGNIPKLLIYKASNLHTGVPSRFSGSGSGTDFTLTISSLQPEDIATYYCLQGQSYPLTFGGGTKLEIK
notes: Recombinant mIgG2a/kappa (also made as mIgG2a-D265A); also called candidate NO 10
B2: BL006-4-52G6-52K7 (antibody, V domains shown)
VH: QVQLQQPGAELVKPGASVKLSCKASGYSFTSYWMHWVKQRPGQGLEWIGQIDPSDSYTNYNQKFKGKATLTVDKSSSTAYMQLSSLTSEDSAVYYCASGNYGPYLGNYFDYWGQGTTLTVPS
VL: DIVMSQSPSSLVVSVGEKVTMSCKSSQSLLHSTNQKNYLAWYQQKPGQSPKLLIYWASTRESGVPDRFTGSGSGTDFTLTISSVKAEDLVVYYCQQYYNYPYTFGGGTKLEIK
notes: Recombinant mIgG2a/kappa (also made as mIgG2a-D265A); also called BL006-4-52G6-52K7 #4; candidate NO 2
B3: BL006-19-352G9-352K8 (antibody, V domains shown)
VH: QVQLQQPGAELVKPGASVKLSCKASGYTFTSYWMHWVKQRPGQGLEWIGMIHPNGDITDYNEKFKSKATLAVDESSSTAFMQLNSLTSEDSAFYYCARASYYGSLYWGQGTTLTVSS
VL: DIVMTQSQKFMSTSVGDRVSVTCKASQNVGIAVAWYQKKPGQSPKTLIYSASTRYTGVPDRFTGSGSGTDFTLTINDVQSEDLADYFCQQYGSSPLTFGAGTKLELK
notes: Recombinant mIgG2a/kappa (also made as mIgG2a-D265A); also called candidate NO 17
B4: BL006-19-134G5-134K4 (antibody, V domains shown)
VH: QVQLQQPGAELVKPGASVKLSCKASDYTFTTYWMHWVKQRPGQGLEWIGMIHPNSDTTLYNEKFRSQATLTVDKSSSTAYIQLSRLTSEDSAVYYCVVTGTNFDYWGQGTTLAVSS
VL: QVVLTQSPAIMSASPGEKVTMTCSATSSVSYMYWYQQKPGSSPKPWIYRTSNLASGVPVRFSGSGSGTSYSLTISSMEAEDAATYYCQQWSSNPLTFGGGTKLELK
notes: Recombinant mIgG2a/kappa (also made as mIgG2a-D265A); also called BL006-19-134G5-134K4 #2; candidate NO 7
B5: BL006-19-363G1-363K1 (antibody, V domains shown)
VH: B4 VH with D26G, M34I, H52L, D56G, L59I, T78A, I81M, V97A, A113T
VL: B4 VL with V2I, T26S, S66F, S76N, G99T
notes: Recombinant mIgG2a/kappa (also made as mIgG2a-D265A); also called candidate NO 18
B6: BL006-19-370G9-370K16 (antibody, V domains shown)
VH: QVQLQQSGAELGRPGTSVKMSCKAAGYTFTNYWIGWVKQRPGHGLEWIGDIYPGGGYTNYNEKFKGKATLTADTSSSTAYIQLSSLTSEDSAIYYCARSGYYDGSPLAMDYWGQGTSVTVS
VL: QIVLTQSPTIMSASPGEKVTMTCSASSSVSYMHWYQQKSGTSPKRWIYDTSKLASGVPARFSGSGSGTSYSLTISSMEAEDAATYYCQQWSSNPPTFGSGTKLEIK
notes: Recombinant mIgG2a/kappa (also made as mIgG2a-D265A); also called candidate NO 19
B7: BL006-4-20G5-20K5 (antibody, V domains shown)
VH: EVQLAESGGDLVTPGGSLKLSCAASGFTFSSYGMSWVRQTPDKRLEWVATITHGGSYIYYPDSVKGRFTLSRDNAKNTLYLQMSSLKSEDTAMYYCIRHADYARFAYWGQGTLVTVSA
VL: DIQMTQTTSSLSASLGDRVTISCRPSQDISNYLNWYQQKPDGTVKLLIYYTSRLHSGVPSRFSGSGSGTDYSLTISNLEQEDIATYFCQQGNTLPWTFGGGTKLEIK
notes: Recombinant mIgG2a/kappa (also made as mIgG2a-D265A); also called BL006-4-20G5-20K5 #1; candidate NO 1
B8: BL006-9-15G1-15K5 (antibody, V domains shown)
VH: QAYLQQSGAELVRPGASVKMSCKASGYTFTSYNMHWVKQTPRQGLEWIGAVIPGNGDSFYNQKFKGKATLTVDKSSSTAYMQLSSLTSEDSAVYFCGRSSSGCIAYWGQGTLVTVSA
VL: DIVLTQSPASLAVSLGQRATISCRVSGSVDYDGDSYMNWYQQKPGQPPKLLIYAASNLESGIPARFSGSGSETDFTLNIHPVEEEDAATYYCLQSNEAPWTFGGGTKVEIK
notes: Recombinant mIgG2a/kappa (also made as mIgG2a-D265A); also called candidate NO 12

What was measured:
[1] = biological target: T1, mouse CD96 expressed on CHO cells; experiment: FCM on CHO cells expressing mouse CD96
From the text: (§1) The capacity of the identified mouse anti-human CD96 antibodies to recognize the CD96 protein from other species was further analyzed by flow cytometry by using CHO cells expressing the mouse or the rhesus CD96. The expression of the species-specific CD96 on CHO cell surface was confirmed by using staining with appropriate anti-CD96 antibodies and flow cytometry on non-fixed cells. The rat anti-mCD96 antibody clone #630612 (R&D Systems) and the candidate BL006-9-1 (positive by ELISA on rhesus CD96) were used to confirm the expression of rhesus CD96, while the clone 6A6 (rat IgG2a, e-Bioscience) was used to verify the expression of mouse CD96.
(§2) Mouse anti-CD96 antibodies and isotype control antibodies were incubated at 10 or 1 μg/mL with CHO cells expressing different CD96 species at +4° C. for 30 minutes.

[2] = biological target: T2, rhesus CD96 transiently expressed on …; experiment: flow cytometry on CHO cells transiently expressing rhesus CD96; antibody at 1 (thin line) and 10 µg/ml (thick dashed line), filled grey = isotype control
Procedure: FIG. 7: Binding profiles of anti-CD96 antibodies on CHO cells transfected with rhesus CD96. Anti-CD96 antibodies or the corresponding isotype control mAbs were tested for their capacity to recognize rhesus CD96 transiently expressed on CHO cells by flow cytometry. Each histogram represents the overlay of the fluorescence intensity obtained for each antibody tested at 1 (black line) and 10 μg/ml (thick dashed black line) and compared to the fluorescence obtained with an isotypic control (filled grey histogram).
as §1, §2

[3] = biological target: T3, human CD96 short isoform v2 expressed …; experiment: FCM on hCD96v2-CHO cells
Procedure: FIG. 6: Binding profiles of anti-hCD96 antibodies on human CD96-transfected CHO cells (hCD96v2, short isoform). CHO cells expressing hCD96v2 were incubated with serial dilution of the indicated mIgG1 or mIgG2a anti-CD96 or isotype control antibodies. […] The results are expressed as the difference of mean fluorescence intensity (delta MFI) between cells stained with antibodies and cells without antibodies. Dose response curves were obtained from GraphPad prism software using a non-linear regression fit with a variable slope model (4 parameters). To simplify the reading, results from the various anti-hCD96 candidates are shown on 4 different panels.
The capacity of the identified mouse anti-CD96 antibodies to recognize the cell membrane expressed human CD96 was further analyzed by flow cytometry (FCM) by using CHO cells stably transfected with the CD96 short isoform v2 (CD96v2; Genbank accession number NM_005816, flanked in C-terminus with HA-tag) (SEQ ID NO: 268).
Mouse anti-CD96 antibodies and isotype control antibodies were incubated at various concentrations from 10 μg/mL to 4.6 ng/mL with CHO cells expressing human CD96 at +4° C. for 30 minutes. […] The differences between the mean fluorescence intensity (MFI) obtained for each of the antibody concentration and the intensity obtained in absence of primary antibody (delta-MFI), were calculated and plotted against the concentrations of antibodies.

[4] = biological target: T3, human CD96 short isoform v2 expressed …; experiment: FCM, inhibition of hCD155-Fc binding to hCD96v2-CHO cells
Procedure: All candidates except BL006-2-19 that bound very weakly on hCD96v2 by FCM were tested for their capacity to inhibit the binding of human CD155 to hCD96v2 stably expressed on CHO cells. Human CD96-transfected CHO cells (3×10⁵ cells/well of 96-well plate) were incubated at +4° C. for 30 minutes with serial dilutions of anti-CD96 antibodies or isotype control antibody (in mIgG2a or mIgG2aD265A format) in the presence of 4 μg/mL of biotinylated hCD155-Fc (produced and biotinylated at BliNK).
% inhibition=(1−(MFI_wAb&CD155−MFI_CHO)/(MFI_wCD155−MFI_CHO))×100, where MFI_wAb&CD155 is the Mean Intensity Fluorescence (MFI) obtained with the hCD96-CHO cells incubated with the tested antibody and hCD155-hFc; MFI_CHO is the MFI obtained in the absence of hCD155 and mAbs; and MFI_wCD155 is the fluorescence with hCD155 but without pre-incubation with antibody (0% CD155 binding inhibition). The % of inhibition was plotted against antibody concentration and the IC50 values were calculated by using a nonlinear regression analysis model of the GraphPad Prism software.

| Binder | binding result [1] | binding result [2] | EC50 [3] | Maximum binding (delta MFI) [3] | IC50 [4] | Maximal Inhibition Capacity (%) [4] |
| --- | --- | --- | --- | --- | --- | --- |
| B1 | no binding (tested: 1 and 10 µg/mL) | binds | 4.82 nM | 723000 delta MFI | 16.8 nM | 100% |
| B2 | no binding (tested: 1 and 10 µg/mL) | binds | 13.4 nM | 493000 delta MFI |  | < 5% |
| B3 | no binding (tested: 1 and 10 µg/mL) | binds |  |  |  |  |
| B4 | no binding (tested: 1 and 10 µg/mL) | no binding (tested: 10 µg/ml) |  |  |  |  |
| B5 | no binding (tested: 1 and 10 µg/mL) | no binding (tested: 10 µg/ml) |  |  |  |  |
| B6 | no binding (tested: 1 and 10 µg/mL) | no binding (tested: 10 µg/ml) |  |  |  |  |
| B7 | no binding (tested: 1 and 10 µg/mL) | no binding (tested: 10 µg/ml) |  |  |  |  |
| B8 |  |  | 14.3 nM | 42000 delta MFI |  | < 5% |
